The text below walks through data of patent US5856148A, “Materials and methods for biosynthesis of serine and serine-related products” (priority 1991, dated 1999).

The test system of this data set is 3-phosphoglycerate dehydrogenase (PGD). The data set can be described thus: assay of PGD activity (relative catalytic activity). The class given is biochemical, E. coli. An excerpt: While not critical to the invention, the assay of PGD activity is generally necessary in order to establish the degree of serine sensitivity of the altered enzyme. As is well known in the art, enzyme activity is a function of the total number of enzyme molecules and the catalytic activity of each molecule. Thus, in comparing the catalytic activity of PGD feedback variants, steps must be taken to adequately control for the relative number of PGD molecules for samples in which relative catalytic activity is to be compared. There are a number of ways in which this may be accomplished. However, since it is difficult to adequately establish the level of gene expression in cells transformed with truncated serA genes (due to decreased viability), the most suitable way to compare PGD activity produced from various constructs and the wild type is to chromosomally integrate the altered serA gene containing standard regulatory elements in a single copy, followed by harvesting the transformants and determination of the relative catalytic activity as compared to PGD from wild type cells.
Any method suitable for the measurement of PGD activity may be employed. PGD activity may be measured through detection of either the forward or the reverse reaction by the method of John C. McKitrick and Lewis I. Pizer, J. Bacteriol., 141:235-245 (1980). […]

B1: WT: wild-type E. coli 3-phosphoglycerate dehydrogenase (serA), C-terminal sequence SEQ ID NO: 2 (protein, UniProt P0A9T0 2-410, looked up)
D-3-phosphoglycerate …: AKVSLEKDKIKFLLVEGVHQKALESLRAAGYTNIEFHKGALDDEQLKESIRDAHFIGLRSRTHLTEDVINAAEKLVAIGCFCIGTNQVDLDAAAKRGIPVFNAPFSNTRSVAELVIGELLLLLRGVPEANAKAHRGVWNKLAAGSFEARGKKLGIIGYGHIGTQLGILAESLGMYVYFYDIENKLPLGNATQVQHLSDLLNMSDVVSLHVPENPSTKNMMGAKEISLMKPGSLLINASRGTVVDIPALCDALASKHLAGAAIDVFPTEPATNSDPFTSPLCEFDNVLLTPHIGGSTQEAQENIGLEVAGKLIKYSDNGSTLSAVNFPEVSLPLHGGRRLMHIHENRPGVLTALNKIFAEQGVNIAAQYLQTSAQMGYVVIDIEADEDVAEKALQAMKAIPGTIRARLLY
Turning to B1, the “Units (relative catalytic activity)” value (Table 1, following chromosomal integration of the construct) was 0.05 Units. The Units (Table 1A, wildtype and mutated serA alleles) is given as 0.05 Units.
